Where a chain is given by its changes, count along the chain named.
T1: human FB5 (endosialin) cancer antigen (human, UniProt Q9HCU0 18-757)
T1 construct: whole, on cells; The antigen is presented on LA1-5s cells; also called FB5 antigen
T1 sequence (looked up): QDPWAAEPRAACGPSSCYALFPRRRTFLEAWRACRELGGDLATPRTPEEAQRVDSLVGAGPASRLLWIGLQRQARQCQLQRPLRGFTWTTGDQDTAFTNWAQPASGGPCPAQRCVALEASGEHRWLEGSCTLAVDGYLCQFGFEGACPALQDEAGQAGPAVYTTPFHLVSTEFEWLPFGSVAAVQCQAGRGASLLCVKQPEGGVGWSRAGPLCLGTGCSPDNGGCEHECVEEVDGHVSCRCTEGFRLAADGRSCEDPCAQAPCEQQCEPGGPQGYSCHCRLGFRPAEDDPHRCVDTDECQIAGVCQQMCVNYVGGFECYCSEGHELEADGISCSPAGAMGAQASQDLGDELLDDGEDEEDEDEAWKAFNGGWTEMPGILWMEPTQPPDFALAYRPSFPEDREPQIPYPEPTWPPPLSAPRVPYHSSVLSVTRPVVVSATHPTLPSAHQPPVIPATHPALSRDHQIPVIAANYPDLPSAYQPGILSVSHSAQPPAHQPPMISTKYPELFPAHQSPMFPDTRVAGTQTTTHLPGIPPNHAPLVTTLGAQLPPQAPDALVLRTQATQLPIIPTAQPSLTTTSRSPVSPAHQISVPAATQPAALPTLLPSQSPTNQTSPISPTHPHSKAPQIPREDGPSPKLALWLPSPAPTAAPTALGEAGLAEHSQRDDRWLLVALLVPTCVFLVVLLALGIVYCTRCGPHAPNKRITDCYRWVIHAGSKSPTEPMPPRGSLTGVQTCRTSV

B1: FB5HuVHK/HuVK (antibody, V domains shown)
VH: QVQLQESGPGLVRPSQTLSLTCTASGYTFTDYVIHWVKQPPGRGLEWIGYINPYDDDTTYNQKFKGRVTMLVDTSSNTAYLRLSSVTAEDTAVYYCARRGNSYDGYFDYSMDYWGQGSLVTVSS
VL: DIQMTQSPSSLSASVGDRVTITCRASQNVGTAVAWLQQTPGKAPKLLIYSASNRYTGVPSRFSGSGSGTDYTFTISSLQPEDIATYYCQQYTNYPMYTFGQGTKVQIK
B2: FB5HuVH/HuVK (antibody, V domains shown)
VH: B1 VH with K38R
VL: B1 VL
notes: also called reshaped antibody FB5HuVH/HuVK
B3: FB5HuVHK,QA,LT,VK/HuVK (antibody, V domains shown)
VH: B1 VH with R67Q, V68A, M70L, L71T, D73V, T74K
VL: B1 VL

Target: T1, human FB5 (endosialin) cancer antigen
Test: mixed hemadsorption (MHA) rosetting assay on LA1-5s human neuroblastoma cells, protein A-conjugated red blood cells as indicator

| Molecule | Concentration of antibody for 50% rosetting [ng/mL] |
| --- | --- |
| murine monoclonal antibody mAbFB5 | 3 |
| chimeric FB5 antibody | 3 |
| B1 | 16 |
| B2 | 80 |
| B3 | 16 |

Source: patent publication US6391302 (LUDWIG INSTITUTE FOR CANCER RESEARCH, dated 2002)
